# ± gives the standard deviation of the averaged measurements.
# System: Saccharomyces cerevisiae
# Assay: protein stability index of tFT-peptide fusion (C-terminal peptide) (PSI (0-1 scale)); higher = more stable (slower turnover)
# Details: genetic background: wild type; temperature: 30 C
# 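Also: PSI is a weighted mean of sequencing reads over stability bins, variants kept only with over 10 reads, mCherry proximal and sfGFP distal, peptide attached via GGGS linker.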
row,Sequence,protein stability index
1,TAFGLMRQPCMG,0.657 ± 0.052
2,CPCASEYIAFTL,0.701 ± 0.018
3,ISYGSGCGIVNH,0.683 ± 0.054
4,SIVFFLPPVSSS,0.724 ± 0.089
5,PLPPVVPTFSTP,0.684 ± 0.0077
6,ESSVLGFWIMSL,0.629 ± 0.041
7,YRHYVKLGPKPF,0.668 ± 0.024
8,CGVHQSRATPMS,0.663 ± 0.032
9,PYTHDRTTSPVF,0.762 ± 0.12
10,WSVVGVGGCGAR,0.712 ± 0.041
11,AFVLGSWSWWRA,0.715 ± 0.015
12,PDVFIWIRPLLP,0.6282 ± 0.0062
13,VTEWGVKWWEDR,0.714 ± 0.11
14,PPRPRPPLPALP,0.764 ± 0.11
15,AFLVGYSGVGYV,0.687 ± 0.032
16,NRVPKKPAHLQQ,0.647 ± 0.013
17,PPSQLWNSPSPC,0.767 ± 0.064
18,GSVLRCFFRKGS,0.6923 ± 0.0059
19,VNPWLRCSFRFW,0.6881 ± 0.0066
20,PLSPAPPRPPPP,0.621 ± 0.023
21,KRIRTKLKKTQK,0.695 ± 0.011
22,LLVGVGGAGGVG,0.603 ± 0.012
23,PSPATCGSSFSK,0.734 ± 0.056
24,GAPPPAFPISSP,0.648 ± 0.05
25,YRTSLSMANHLL,0.611 ± 0.069
26,LWENVVLVEGGK,0.704 ± 0.069

row,Sequence,protein stability index
1,ILLFSLKHRSDH,0.63 ± 0.018
2,PAPSPLVLFFGF,0.692 ± 0.03
3,VAVRCVLWEGFS,0.76 ± 0.084
4,HGFSRFAACNGV,0.666 ± 0.0071
5,EKKKKTKYKKKK,0.735 ± 0.052
6,VVSFDPLFPSPR,0.706 ± 0.037
7,EGRGSVVGSSEG,0.633 ± 0.035
8,TPKTRPRSRAVK,0.748 ± 0.015
9,AGSSLVVAWHGV,0.673 ± 0.028
10,LIDYGLDVSLSL,0.703 ± 0.015
11,GGCEWWSGGRGG,0.733 ± 0.026
12,FLSLGVIARYFL,0.6325 ± 0.0042
13,ISRFSLTFPFHR,0.6947 ± 0.0039
14,ESPPVCFLFSSC,0.711 ± 0.021
15,SSLSPGFPLPSS,0.6989 ± 0.0014
16,PPSPPAPSPTPP,0.721 ± 0.038
17,KIKKNKNKKKKS,0.686 ± 0.009
18,VARGCNSVYGYA,0.653 ± 0.012
19,PPVLAVRTSLDA,0.636 ± 0.021
20,VPWTPPRVERVP,0.737 ± 0.036
21,VSPPLHFLPLHF,0.6661 ± 0.004
22,SHRDNEKPILSA,0.75 ± 0.015
23,MSPSVFLPPLPL,0.662 ± 0.09
24,GRGRLLYWEKWL,0.66 ± 0.03
25,LGFLLSLVCLLG,0.532 ± 0.015
26,KMILVGMKKSVV,0.6502 ± 0.0026

row,Sequence,protein stability index
1,VWRSAMIRVPPC,0.608 ± 0.054
2,VWAREGLGLRPP,0.673 ± 0.11
3,PPPGPSPLAAPP,0.654 ± 0.056
4,APIQPRAPPRAP,0.669 ± 0.017
5,GTETKIRNKHVE,0.645 ± 0.059
6,PWPGSWALFCFI,0.719 ± 0.15
7,FCSDRPWGPCRR,0.579 ± 0.08
8,PSGGRGSRWWGV,0.7348 ± 0.006
9,WFSCYSGQSSNF,0.757 ± 0.11
10,VISLPWRPKSWW,0.739 ± 0.07
11,TRGRGLSGGRFF,0.658 ± 0.037
12,IAATTVVRPAFC,0.66 ± 0.0083
13,PPLTVRPFPFRV,0.662 ± 0.015
14,IFGCPEFFCFLL,0.696 ± 0.061
15,GGWGGGCGACVV,0.72 ± 0.073
16,PGPGNGHTKRTR,0.654 ± 0.034
17,GRRRGWAWGVWG,0.683 ± 0.0084
18,LRLSCGDRFRVG,0.557 ± 0.019
19,PSASPPPPARQP,0.672 ± 0.057
20,GAVRAVAGGGAR,0.711 ± 0.067
21,SSLTCLLFPPGY,0.695 ± 0.012
22,LWLDKSREGSLG,0.701 ± 0.021
23,PPPPPRPSPHPP,0.62 ± 0.058
24,GGELRPKGVRGV,0.656 ± 0.046
25,PAPPVFVPSLPL,0.801 ± 0.029
26,RSPSFLRSFPAL,0.686 ± 0.016

row,Sequence,protein stability index
1,LRPKESQEYIHR,0.652 ± 0.079
2,SDLGLHGRVPST,0.6671 ± 0.0014
3,PISPSLCSSILS,0.5893 ± 0.0056
4,LGLRSGQGPVTL,0.7746 ± 0.00092
5,SYRLILGSSPHP,0.619 ± 0.089
6,VSHGPAIHALSI,0.669 ± 0.028
7,CEFGGEEINQTV,0.6951 ± 0.0015
8,PGSAVSFLLTFR,0.646 ± 0.012
9,GTVHQQGGPIDG,0.676 ± 0.033
10,RKNIKYNTKNSI,0.654 ± 0.03
11,GGPESMDILRFR,0.62 ± 0.069
12,CGSNSSLQECGV,0.679 ± 0.11
13,SPPHTGMLRLLT,0.7 ± 0.063
14,CFASLLSFCPLV,0.695 ± 0.065
15,DEFRVALGSVTC,0.65 ± 0.12
16,CQQCLATYNKGP,0.708 ± 0.16
17,KIYESPLLEIKI,0.617 ± 0.032
18,PVPLSALPPLPP,0.746 ± 0.034
19,RPCPGPLPPPPP,0.662 ± 0.013
20,WVSDTNNTSRRK,0.752 ± 0.051
21,CLCYAWVPAPLF,0.604 ± 0.018
22,PPPLPPPAPPPR,0.663 ± 0.014
23,PPPIPPFRLSRS,0.69 ± 0.061
24,PFAPSPRPPQPP,0.672 ± 0.02
25,TFAALRVFSFLS,0.666 ± 0.052
26,CYTGMIRSTPLS,0.702 ± 0.064

row,Sequence,protein stability index
1,WTLELSGWLRSE,0.77 ± 0.079
2,VGRGEEYYGMEV,0.634 ± 0.0066
3,ICVSGALMARAL,0.6798 ± 0.0036
4,SFEFSSRVFSLD,0.714 ± 0.055
5,AVSLWAIFPLYT,0.611 ± 0.015
6,GFTGGGRRWLGG,0.713 ± 0.056
7,CVPLPPVLPRSC,0.6607 ± 0.0018
8,TPRTRPFNPPPR,0.729 ± 0.023
9,TPFVPLAPLPRS,0.728 ± 0.056
10,LLCHAGRTPRPP,0.646 ± 0.013
11,CKGSGLGGGVVS,0.583 ± 0.017
12,TSPSPPPTPCRS,0.702 ± 0.018
13,DPRPPRPDFRPS,0.691 ± 0.072
14,GEYYKRKMNGSK,0.718 ± 0.11
15,GGTHCRVCCVLF,0.659 ± 0.02
16,LIFPPLPPLPPR,0.754 ± 0.01
17,FDAWTHAGMYNW,0.757 ± 0.058
18,FNCIFHMLRFLR,0.656 ± 0.074
19,PKSGPDQPQPPG,0.591 ± 0.086
20,SPRFYSFRPSPP,0.695 ± 0.019
21,ASRYPVPLQPHH,0.6982 ± 0.0044
22,VAVCGTTNGKNA,0.75 ± 0.033
23,ETCTRHHPRHNS,0.687 ± 0.043
24,GPVLAVTRIVCK,0.552 ± 0.0096
25,PLFLCVISPFRL,0.5805 ± 0.0018
26,CPAAWSLPCRPP,0.6599 ± 0.0018

row,Sequence,protein stability index
1,LPPPLPPRPSPP,0.728 ± 0.089
2,QSPPDDRPPPHP,0.676 ± 0.029
3,GLAQRAIKNRHR,0.679 ± 0.11
4,WSRSGGWEKYGV,0.681 ± 0.024
5,PFPRSSPPPPPD,0.652 ± 0.017
6,GVRATRMGGGPL,0.706 ± 0.015
7,TRDEGWSSAARK,0.637 ± 0.062
8,CFCDDRPSLRRV,0.729 ± 0.019
9,GRLLRVSCHGVS,0.701 ± 0.019
10,PTGPPPPSLGPP,0.694 ± 0.021
11,PLRSTYPSLLLP,0.691 ± 0.011
12,TQNYPSAFAIPA,0.552 ± 0.043
13,VNTNLRSTRSNT,0.7271 ± 0.0061
14,PLTRSRFLLSPL,0.653 ± 0.034
15,PFSLLPDASPPL,0.703 ± 0.04
16,GVVGWTAGLRGG,0.734 ± 0.045
17,DSQGSVHPEAQE,0.723 ± 0.012
18,ASCLSPPSPFPR,0.653 ± 0.013
19,PPSPPDPLLCSP,0.7017 ± 0.0043
20,VRRQADRAGRIS,0.696 ± 0.073
21,STTCPTGLTVGR,0.69 ± 0.054
22,RGGWRVTNKKNI,0.645 ± 0.023
23,WWPDILWLNTGW,0.701 ± 0.035
24,AVLRVCHVEVVP,0.634 ± 0.031
25,FGCLFFSPLSIH,0.745 ± 0.043
26,AHPPPSPPFPRH,0.658 ± 0.015

row,Sequence,protein stability index
1,GEGVVRGDGVRG,0.656 ± 0.041
2,RGGWGGGDCVGA,0.688 ± 0.09
3,VLAFSPCPPPPP,0.657 ± 0.026
4,GVGAALDVWRRR,0.696 ± 0.033
5,GGGVSSEWSGCR,0.665 ± 0.0087
6,PLPPHRLPNPRL,0.784 ± 0.011
7,AVFLGGLLVSRW,0.682 ± 0.24
8,SPLISYQPPTDP,0.725 ± 0.061
9,PLSPRPLPPPPP,0.713 ± 0.0018
10,QCYNGSSGVSNL,0.676 ± 0.028
11,GKRYEKVGVEWW,0.765 ± 0.12
12,RLIDMNFPVKKE,0.709 ± 0.04
13,VLSRPLSFPAGI,0.61 ± 0.047
14,AVERGGRGRVVG,0.639 ± 0.04
15,RRNESHAGGRGP,0.778 ± 0.07
16,APSINVQVYWSG,0.649 ± 0.041
17,NKDGIKKKKYNK,0.668 ± 0.032
18,PRPPPPARSPPS,0.66 ± 0.06
19,PPPAPPGPRYRR,0.696 ± 0.025
20,RNNKLGIRKSFL,0.69 ± 0.035
21,GRGLSSLCRRFS,0.691 ± 0.044
22,VRRGGGHRWVVW,0.705 ± 0.016
23,SAIGVGGGGTGG,0.676 ± 0.0082
24,LSLFMAAREVFP,0.664 ± 0.018
25,LVWFQYFRLWGG,0.61 ± 0.029
26,ANSRPASSTRLR,0.857 ± 0.2

row,Sequence,protein stability index
1,SWQSRISLRIST,0.648 ± 0.041
2,PPFLYVLVSSIL,0.54 ± 0.15
3,LQRAPKLLPSSS,0.683 ± 0.03
4,RVAPITARLAPH,0.859 ± 0.12
5,VRGLHRRFEPSN,0.8 ± 0.088
6,WFVVRGGLSPGG,0.695 ± 0.038
7,GTASGGPKVSLF,0.656 ± 0.088
8,LRDYLLWRECTL,0.692 ± 0.033
9,PPLFTAAPRRWS,0.752 ± 0.093
10,KVYTALWLLAGN,0.698 ± 0.028
11,SVRVRKGRYDNK,0.707 ± 0.018
12,DSKDLTPATQVS,0.699 ± 0.013
13,PPPPLLPTPRPF,0.682 ± 0.039
14,PTSVRPPRRRPR,0.745 ± 0.089
15,YEGVNLSWYRIR,0.676 ± 0.045
16,GGGGGGGWGAVG,0.688 ± 0.0076
17,KKSGISSGPNDT,0.689 ± 0.043
18,SLPPPRSLSFPF,0.673 ± 0.011
19,RPRLQNLSRSNV,0.74 ± 0.074
20,GGGSVGMWGWWV,0.625 ± 0.075
